This is an account of results in US20090214428A1 (HENRY M JACKSON FOUNDATION FOR THE ADVANCEMENT OF MILITARY …, published 2009).

The Kd is a measure of binding affinity in units of concentration. What is called koff is the rate constant with which the complex falls apart. Usually kon stands for the rate constant with which the complex forms.

The target in assay [1] is T1, soluble Hendra virus G glycoprotein (sG) (Hendra virus, UniProt O89343 71-604).
T1 sequence: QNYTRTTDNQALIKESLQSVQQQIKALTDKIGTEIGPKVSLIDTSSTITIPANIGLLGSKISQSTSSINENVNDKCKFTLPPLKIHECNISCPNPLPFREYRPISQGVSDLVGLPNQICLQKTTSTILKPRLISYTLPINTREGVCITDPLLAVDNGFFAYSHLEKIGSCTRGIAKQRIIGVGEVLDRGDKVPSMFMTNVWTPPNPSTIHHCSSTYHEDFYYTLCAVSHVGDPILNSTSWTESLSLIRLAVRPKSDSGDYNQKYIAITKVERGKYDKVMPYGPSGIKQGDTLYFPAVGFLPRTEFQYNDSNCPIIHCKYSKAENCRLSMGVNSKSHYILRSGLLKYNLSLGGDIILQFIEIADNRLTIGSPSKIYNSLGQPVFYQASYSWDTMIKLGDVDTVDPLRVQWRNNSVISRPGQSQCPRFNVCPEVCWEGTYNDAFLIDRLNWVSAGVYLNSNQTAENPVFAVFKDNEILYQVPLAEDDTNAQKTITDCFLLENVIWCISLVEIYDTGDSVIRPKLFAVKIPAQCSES
The assay is described as follows: SPR (Biacore 1000), sG immobilised on CM5, Fab injected, 25 C, 1:1 Langmuir fit. (SPR reads the build-up and loss of mass on a sensor chip optically.)

The target in assay [2] is T1, soluble Hendra virus G glycoprotein (sG). The experiment in a line: ELISA, purified soluble Fab on coated sG. (In general: An ELISA detects its analyte on a solid surface through an enzyme-linked reagent.)

B1: Fab m107 (Fab, V domains shown)
VH: EVQLVQSGAEVKKPGASVKVSCKASGYTFTGYYMHWVRQAPGQGLEWMGIINPSGGSTSYAQKFQGRVTMTRDTSTSTVYMELSSLRSEDTAVYYCARDHVHGPDAFDIWGQGTMVTVSS
VL: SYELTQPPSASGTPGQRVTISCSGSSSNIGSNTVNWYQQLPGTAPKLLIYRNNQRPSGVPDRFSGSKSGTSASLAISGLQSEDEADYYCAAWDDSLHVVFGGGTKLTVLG
Regarding B1, in assay [1], the Kd stood at 78 nM, the dissociation rate constant (koff) came to 0.0022 s⁻¹ and the kon was roughly 30000 M⁻¹ s⁻¹. Also, the A450 in assay [2] came to 0.6 A450.

B2: Fab m105 (Fab, V domains shown)
VH: QVQLVQSGGGVVQPGRSLRLSCAASGFTFSSYAMHWVRQAPGKGLEWVAVISYDGSNKYYADSVKGRFTISRDNSKNTLYLQMNSLRAEDTAVYYCARVGGITGTADAFDIWGQGTMVTVSS
VL: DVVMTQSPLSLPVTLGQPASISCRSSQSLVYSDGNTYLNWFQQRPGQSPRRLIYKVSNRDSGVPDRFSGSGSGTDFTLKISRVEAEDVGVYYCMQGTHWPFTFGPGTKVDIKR
B2: in assay [1], binding was characterised by a dissociation constant (Kd) of 69 nM, the koff came to 0.0051 s⁻¹ and the on-rate (kon) came out at 74000 M⁻¹ s⁻¹. Also, the A450 in assay [2] is 0.9 A450.

B3: Fab m109 (Fab, V domains shown)
VH: QMQLQQWGAGLLKPSETLSLTCAVYGGSFSGYYWSWIRQPPGKGLEWIGEINHSGSTNYNPSLKSRVTISVDTSKNQFSLKLSSVTAADTAVYYCARGWFRDWYFDLWGRGTLVTVSS
VL: DIQMTQSPSSLSASVGDRVTITCRASQDIRNDLGWYQQRPGKAPKLLIYAASSLQSGVPSRFSGSGSGTDFTLTISSLQPEDSATYFCLQDYQYPWTFGQGTKVEIKR
For B3, in assay [2], the A450 is 0 A450.

B4: Fab m116 (Fab, V domains shown)
VH: EVQLVQSGAEVKKPGSSVKVSCKASGGAFSSYAISWVRQAPGQGLEWMGGIIPIFGTANYAQKFQGRVTITADESTSTAYMELSSLRSEDTAVYYCARDSAGLGAWGQGTLVAVSS
VL: DIQMTQSPSSLSASVGDRVTITCRASQGISSALAWYQQKPGKAPKLLIYDASSLESGVPSRFSGSGSGTDFTLTISSLQPEDFATYYCQQFNSYPLTFGQGTRLEIKR
As for B4, the A450 in assay [2] turned out to be 0.3 A450.

B5: Fab m110 (Fab, V domains shown)
VH: EVQLVQSGGGLVQPGRSLRLSCAASGFTFDDYAMHWVRQAPGKGLEWVSAISGSGGSTYYADSVKGRFTISRDNSKNTLYLQMNSLRAEDTAVYYCASEGLPETDDAFDIWGQGTMVTVSS
VL: DVVMTQSPLSLPVTPGEPASISCRSSQSLLYSDGYNYLDWYLQKPGQSPQLLIYLGSRRASGVPDRFSGSGSGTDFTLKINTVEAEDVGVYYCMQGVEIPFTFGPGTKVEIKR
Turning to B5, in assay [2], the A450 turned out to be 0 A450.

B6: Fab m104 (Fab, V domains shown)
VH: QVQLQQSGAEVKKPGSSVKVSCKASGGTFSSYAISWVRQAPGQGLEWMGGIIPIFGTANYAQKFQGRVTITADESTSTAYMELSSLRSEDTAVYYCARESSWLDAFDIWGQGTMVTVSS
VL: DVVMTQSPLSLSVTAGEPASISCRSSQSLLHSNGHIYLDWYLQKPGQSPQLLIYMASNRASGVPDRFSGSGSGTDFTLRINRVETEDVGIYYCMQSLHTTRTFGQGTKVEIKR
In assay [1], B6 gave a Kd of 600 nM, a koff of 0.0016 s⁻¹ and a kon of 3000 M⁻¹ s⁻¹. The molecule further had an A450 in assay [2] of 0.7 A450.

B7: Fab m106 (Fab, V domains shown)
VH: QVQLQQSGAEVKKPGSSVKVSCKASGGTFSSYAISWVRQAPGQGLEWMGGIIPIFGTANYAQKFQGRVTITADKSTSTAYMELSSLRSEDTAVYYCARDQLAGYYYDSSGYHYYYYGMDVWGQGTTVTVSS
VL: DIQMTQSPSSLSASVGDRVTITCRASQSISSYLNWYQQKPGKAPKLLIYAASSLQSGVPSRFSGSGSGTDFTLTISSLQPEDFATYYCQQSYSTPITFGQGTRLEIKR
In assay [1], B7 came in with an equilibrium dissociation constant (Kd) of 54 nM, a koff of 0.0033 s⁻¹ and a kon of 62000 M⁻¹ s⁻¹. The A450 in assay [2] was found to be 1.6 A450.

B8: Fab m117 (Fab, V domains shown)
VH: QITLKESGPTLVKPTQTLTLTCTFSGFSLSTSGVGVGWIRQPPGKALEWLALIYWDDDKRYSPSLKSRLTITKDTSKNQVVLTMTNMDPVDTATYYCAHRESGPEFFQHWGQGTLVTVSS
VL: DVVMTQSPLSLPVTLGQPASISCNSSQSLVYSNGITYLNWFHQRPGQSPRRLIYQVSNWDSEVPDRFSGSGSATDFTLKISRVEADDVGIYYCMQGTHWPPTFGQGTRLEIKR
As to B8, the A450 in assay [2] amounted to 0 A450.

B9: Fab m115 (Fab, V domains shown)
VH: QVQLQQSGAEVKKPGSSVKVSCKASGGTFRSYAISWVRQAPGQGLEWMGGIIPIFGTANYAQKFQGRVTITADESTSTAYMELSSLRSEDTAVYYCARGSQSYDHYYYYGMDVWGQGTTVTVSS
VL: QSALTQPASVSGSPGQSITISCTGTSSDVGGYNYVSWYQQHPGKAPKLMIFDVSNRPSGVSNRLSGSKSGNTASLTISGLQAEDEADYYCSSYTSNTVVFGGGTKLTVL
The molecule B9 yielded an A450 in assay [2] of 0.4 A450.

B10: Fab m111 (Fab, V domains shown)
VH: QVQLVQSGAEVKKPGATVKISCKVSGYTFTDYYMHWVQQAPGKGLEWMGLVDPEDGETIYAEKFQGRVTITADTSTDTAYMELSSLRSEDTAVYYCATEGADYWGQGTLVTVSS
VL: DVVMTQSPLSLPVALGQPASISCRSSQSLVHSDGNTYLNWFQQRPGQSPRRLLYKVSNRESGVPDRFSGSGSGSDFTLKISRVEAEDVGIYYCMQGTHWPPITFGQGTRLEIKR
In assay [2], B10 yielded an A450 of 0 A450.

B11: Fab m112 (Fab, V domains shown)
VH: QVQLVQSGAEVKKPGATVKISCKVSGYTFTDYYMHWVQQAPGKGLEWMGLVDPEDGETIYAQKFQGRVTITADTSTNTAYMELSSLRSEDTAVYYCATDGADYWDQGTLGTVST
VL: QSVLTQPPSVSGAPGQTVTISCTGSSSNIGGDSDVHWYQQLPGSAPKLLIYGNRNRPSGVPDRFSGSRSGTSASLAVIGVQADDEADYYCQCYDSSLNGYVFGPGTKVIVL
In the case of B11, the A450 in assay [2] came to 0.4 A450.

B12: Fab m113 (Fab, V domains shown)
VH: QVQLQQSGAEVKKPGSSVKVSCKASGGTFSSYAISWVRQAPGQGLEWMGWTNPNSGGTNYAQKLQGRVTMTTDTSTSTAYMELRSLRSDDTAVYYCANYKLQSDAFDIWGQGTMVTVSS
VL: DIQMTQSPSSLSASVGDRVTITCRASQDIGNFLVWFQQKPGKAPKSLIYAASRLQSGVPSRFSGSGSGTDFTLTISSLQPEDFATYYCQHYKSYPLTFGGGTKVEIKR
B12: the A450 in assay [2] came to 0.1 A450.

B13: Fab m108 (Fab, V domains shown)
VH: EVQLVESGGGLVKPGGSLRLSCAASGFTFSDYYMSWIRQAPGKGLEWVSYISSSGSTIYYADSVKGRFTISRDNAKNSLYLQMNSLRAEDTAVYYCARVGGAFDIWGQGTMVTVSS
VL: NFMLTQPHSVSGSPGKTVTISCTRSSGSIASNYVQWYRQSPGSAPTTVIYEGYQRPSGVPDRFSGSIDSSSNSASLTISGLETEDEADYYCQSYDATNHQVVFGGGTKLTVL
In the case of B13, in assay [2], the A450 is 0.5 A450.
